Laboratory results reported in PMC8771563, “Mitochondrion-targeted supramolecular “nano-boat” simultaneously inhibiting dual energy metabolism for tumor selective and synergistic chemo-radiotherapy” (Theranostics, 2022).
Peptide text beside a SMILES is read from it. * marks the point of attachment. X1 = O=C(c1nn(Cc2ccc(Cl)cc2Cl)c2ccccc12)*; Cyclenylacetyl = O=C(CN1CCNCCNCCNCC1)*; NBD = O=[N+]([O-])c1ccc(*)c2nonc12; βAla = NCCC(=O)O

What was measured:
MCF-7 cells [1] = test: CCK-8 cytotoxicity assay; format: cell-based; conditions: 200 μM, 48 h
Method: Circular dichroism (CD) spectra
The secondary structure of LND- Pep-cyclen hydrogel and NBD- Pep-cyclen hydrogel were monitored by a circular dichroism (CD) spectrophotometer (BioLogic, MOS-450, France) system. The self-assembled hydrogel was added into a 0.1 cm quartz spectrophotometer cell (20- C/Q/0.1), then the CD signals were recorded in the 180- 280 nm scanning wavelength range. The final spectrogram was obtained after subtracting the PBS solvent background.
Mammary carcinoma cancer cells (MCF-7 and 4T1), and mouse fibroblast cells normal cells (L929) were all maintained in our lab. These cells were cultured in DMEM (MCF-7) and RPMI 1640 medium (4T1 and L929) supplemented with 10%
FBS and 1% penicillin-streptomycin in a humidified incubator maintained at 37 °C and 5% CO2, respectively.
Cytotoxicity and apoptosis analysis
All kinds of cells were seeded in 96-well plates at a density of 5000 cells per well. After 24 h incubation, the cells were treated with a series of pre-determined doses of LND-Pep-cyclen nanofibers, free LND, free cyclen, mixture of free LND and cyclen molecules for 48 h. After adding 10 μL CCK-8 solution to each well, the cells were incubated at 37 °C for another 4 h. OD450 was measured using a Thermo Scientific™ Varioskan™ LUX (Thermo, CA, USA), and then the cell viability values

MCF-7 cells [2] = test: Annexin V-FITC/PI apoptosis flow cytometry; format: cell-based; conditions: 50 μM, 48 h, Figure 2D
Method: of different groups at different doses were calculated. For apoptosis assay, MCF -7 and L929 cells were cultured in 6-well plates at a density of 2 × 10^5 cells per well, then were treated with different forms of drug for 48 h. Afterwards, cells were harvested at 1000 rpm for 5 min and then washed with ice-cold PBS twice. Upon being suspended in 100 μL 1× binding buffer, the samples were incubated with 5 μL of FITC-Annexin- V and 5 μL of PI for 15 min at room temperature in the dark. Finally, the cells were added in 100 μL 1× binding buffer blending gently and analyzed by flow cytometry (Becton Dickinson, NJ, USA) within 1 h.
MCF-7 cancer cells and L929 normal cells with a density of 1×10^5 cells/mL were cultured in confocal chambers and 6-well plates at 37 °C, respectively. After 70% confluence, the cells were treated with fresh medium which contained the same concentrations of LND-Pep-cyclen nanofibers, LND, cyclen, mixture of free LND and cyclen molecules for 12 h. Then, followed by washing twice with PBS and incubated with 1 mL DCFH-DA (10 μM) at 37 °C for 30 min in the dark. The cells in 6-well plates were harvested, washed, re- suspended and then loaded on flow cytometry for quantitate analysis. […] Excitation at 488 nm and signal collection at 525 ± 10 nm for DCFH-DA fluorescence. […]

MCF-7 cells [3] = test: MMP depolarization (JC-1 probe, CLSM); format: cell-based; conditions: 50 μM, 24 h, serum-free medium, JC-1 10 µg/mL 30 min
Method: MCF-7 cancer cells with a density of 2 × 10^5 cells/mL were cultured in confocal cuvettes under 5% CO2 at 37 °C. After the number of anchorage-dependent cells reached up to 70%, the cells were incubated with a replaceable serum-free medium containing different forms of the drug (50 μM) for 24 h. This was followed by washing away the drug that was not absorbed and staining with 1 mL JC-1 probe (10 µg/mL) for 30 min in dark. After washing with PBS for three times, the cells were imaged by CLSM to examine the fluorescence intensity of the J-monomers and the J-aggregates.

MCF-7 cells [4] = test: ATP content (luminescent assay); format: cell-based; conditions: 50 μM, 24 h, per cell, control = 100%, mean n = 5
Method: MCF-7 cells with a density of 5000 cells/well were seeded in 96-well plates, and then were cultured at the incubators for 24 h at 37 °C under 5% CO2. After co-incubation with different forms of drugs for another 24 h, the growth medium was removed, and the wells were washed twice with PBS. The cell number of each group was counted before all the measurements. After dissociation and centrifugation, the liquid supernatant was collected for the following analysis of the HK activity and the lactate content. The hexokinase (HK) activity of the cells in each group was determined by the OD340 absorbance according to the specification of the HK activity assay kit (Solarbio, BC0745). The intracellular lactate content was detected using an L-lactate assay kit (Promega, J5021) and depended on the OD565 absorbance. A luminescent ATP detection assay kit (Abcam, ab113849) was used to analyze the quantity of ATP. All the data were shown as the mean value in per cell of each group.

MCF-7 cells [5] = test: Colony formation assay / radio-sensitization; format: cell-based; conditions: 10 μM, 12 h, γ-rays 0-6 Gy, multi-target single-hit model, n = 3
Method: MCF-7 cells (1,000/well) were seeded in six-well plates and incubated with different forms of drugs at a concentration of 10 μM after 12 h. Subsequently, they were irradiated with γ-rays at doses of 0, 2, 4, and 6 Gy at 36 h. Following this, the cells were continuously cultured with a fresh drug-free medium in an incubator for another 5-8 days. The fixed colonies were then stained using crystal violet (0.25%, ethanol) for subsequently counting the number of colonies, and evaluating the colony inhibition ability of each treatment. Only colonies containing >50 cells were counted and survival curves were plotted with Origin. Furthermore, the SER value was used to compare the efficiencies of the different drugs in improving the sensitivity of the MCF-7 cells to radiotherapy. The SER was determined by a classical multi-target single-hit model using the following equation:
S = 1 - (1 - e ^-D/D0)^n (1)
where S is the survival fraction, D is the radiation dose, D0 is the mean lethal dose, and n is the extrapolation number. D0 and n were calculated using the“GraphPad Prism” software (version 8.0). The final survival fraction curve of each group was obtained by a nonlinear fitting using Origin 2018, and the SER was expressed using the following formulae:
SER = Dq (control group)/Dq (treated group (2)

MCF-7 tumors = test: In vivo anti-tumor evaluation; conditions: MCF-7 tumor bearing nude mice, single i.v. injection, 5 mg/kg LND equivalent, day 14, vs PBS control
Method: (§1) MCF-7 cells (1×10^7 cells per mouse) were subcutaneously injected into the breast regions of six-week-old nude mice to establish the tumor model. When the tumor volume grew to approximately 100 mm^3, all the mice were randomly divided into eight groups with seven mice in each group. Except for the control groups, all groups were intravenously administrated with 200 μL of LND-Pep-cyclen nanofibers, free LND, and mixture of free LND and free cyclen (5 mg/kg LND equivalent and 2 mg/kg cyclen equivalent), respectively. After 12 hours, the mice in the chemo-radiotherapy group were exposed to 6 Gy γ-rays. To evaluate the therapeutic efficacy, the tumor size and the body weight were recorded daily. The tumor volumes were measured using a vernier caliper and then calculated using the formula: (width^2×length)/2. On the 14th day, all the mice were euthanized when the tumor volume in the PBS control group reached approximately 1500 mm^3. The tumors and normal tissues including heart, liver, spleen, lung and kidney in each group were carefully collected, photographed, and then fixed in 4% form aldehyde for histological analysis.

[6] = H&E histology of major organs after treatment; format: in vivo, nude mice; conditions: single administration, compared with control group (Figure S22)
Method: as §1

[7] = Bio-compatibility evaluation (hematology, blood biochemistry); format: in vivo; conditions: BALB/c mice, 20 mg/kg i.v. at day 0, 7, 14, 21 (four injections), n = 5
Method: Cambridge, UK), anti-Bcl-2 (1:1000, Abcam, Cambridge, UK), anti-smac and anti-GAPDH antibody. After washing with 1 ×TBST, membranes were incubated with corresponding secondary antibody for 1 h at room temperature. The membranes were washed 3 times by 1 ×TBST and illuminated by an enhanced chemiluminescent (ECL) kit (Pierce™ ECL Western Blotting Substrate, Thermo Scientific, Rockford, IL, USA) on a Bio- Rad film (Sigma-Aldrich, St. Louis, MO, USA).
Bio-compatibility evaluation
Six-week-old BALB/c mice were randomly assigned to two groups and intravenously administrated with 200 μL of LND-Pep-cyclen nanofibers (20 mg/kg) and PBS at 0 day, 7 day, 14 day, 21 day. All the mice were sacrificed at the last time point, followed by collecting the whole body blood for the hematology and blood

MCF-7 cells [8] = format: cell-based
Method: To confirm our hypothesis, we subsequently used a fluorescent molecule of 7-nitrobenzo-2-oxa-1,3-diazole (NBD), to replace LND, resulting in another peptide conjugate of NBD-GFFYK-cyclen (NBD-Pep-cyclen). […] Therefore, the NBD-Pep-cyclen conjugate could be very qualified as a substitute for LND-Pep-cyclen to verify its mitochondrial targeting performance. After incubation with MCF-7 cells for 4 hours, the cellular distribution of the NBD-Pep-cyclen nanofibers was investigated. […] The endocytosis mechanism for the cellular uptake was investigated using several well-established endocytotic inhibitors. […] In contrast, the addition of NaN3 (an inhibitor of energy-dependent endocytosis) and chlorpromazine (an inhibitor of clathrin-mediated endocytosis) reduced the uptake to less than 50%. […]
Figure S9 (A) CLSM images of MCF-7 cells treated with NBD-Pep-cyclen
nanofibers in the absence and presence of endocytotic inhibitors. […]

MCF-7 and L929 cells = test: Flow cytometry of NBD accumulation in cancer versus normal cells; format: cell-based; conditions: 50 μM, 4 h, flow cytometry MFI, n = 3

In the case of `O=C(O)c1nn(Cc2ccc(Cl)cc2Cl)c2ccccc12` [LND, Lonidamine], the Cell survival rate (MCF-7 cells [1]) is reported as 50%, the “Cells in lower right quadrant (PI / Annexin V-FITC plot); early apoptosis rate” value (MCF-7 cells [2]) is reported as 1.45% and the MMP depolarization (MCF-7 cells [3]) is reported as “very limited effect”. The “ATP content, of control” value (MCF-7 cells [4]) was 60%, the “SER (sensitization enhancement ratio)” value (MCF-7 cells [5]) was 1.78 and the “Tumor growth / final tumor volume, chemotherapy only” value (MCF-7 tumors) was “barely inhibit the tumor growth”.
For `O=C(CN1CCNCCNCCNCC1)NCCCC[C@H](NC(=O)[C@H](Cc1ccc(O)cc1)NC(=O)[C@H](Cc1ccccc1)NC(=O)[C@H](Cc1ccccc1)NC(=O)CNC(=O)c1nn(Cc2ccc(Cl)cc2Cl)c2ccccc12)C(=O)O` [LND-Pep-cyclen] (X1-GFFYK(Cyclenylacetyl)-OH), the “Histological changes in liver, spleen, kidney, heart, lung (H&E)” value [6] was “no appreciable inflammatory damage and tissue damage”, the “Liver and kidney indices (ALT, AST, TBIL, BUN)” value ([7]; vs control) was “normal with no relevant difference” and the Blood routine values ([7]; vs untreated control) was “no apparent variations”.
For `O=C(CCNc1ccc([N+](=O)[O-])c2nonc12)NCC(=O)N[C@@H](Cc1ccccc1)C(=O)N[C@@H](Cc1ccccc1)C(=O)N[C@@H](Cc1ccc(O)cc1)C(=O)N[C@@H](CCCCNC(=O)CN1CCNCCNCCNCC1)C(=O)O` [NBD-Pep-cyclen] ({NBD-βAla}-GFFYK(Cyclenylacetyl)-OH), the “Cellular uptake in presence of NaN3” value (MCF-7 cells [8]) was “less than 50%”, the “Cellular uptake in presence of chlorpromazine” value (MCF-7 cells [8]) was “less than 50%” and the “Cellular uptake in presence of nystatin” value (MCF-7 cells [8]) was “barely affected”. The “Cellular uptake in presence of wortmannin” value (MCF-7 cells [8]) was “barely affected” and the “NBD fluorescence intensity in MCF-7 cells relative to L929 cells” value (MCF-7 and L929 cells) was “more than two-folds”.
